Experimental data as given in the supplement of paper PMC10567573.

B1: VPS39 (parent)
chain: ITEEKVCMVCKKKIGNSAFARYPN

Variants of: B1
Assay: protein stability index of a GFP-peptide fusion (GPS, HEK-293T) (PSI 1-6); higher = more stable
Conditions: c terminus: a fixed tail appended
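Note: lentivirally expressed fusions sorted by FACS into six bins by GFP to DsRed ratio, PSI derived from sequencing read proportions per bin multiplied by bin number.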

Protein stability index of substitutions, site by site:
S17: R 2.62, E 3.4, W 2.14, M 2.3, D 2.78, L 2.07, P 2.47, Q 3.1, K 2.1, T 2.11, Y 2.08, F 2.18, A 2.19, H 2.54, I 3.04, G 2.52, V 3.12, N 2.17, C 2.67
K13: I 2.02, G 1.35, P 2.27, H 2.01, S 2.36, V 1.98, N 2.33, Q 2.6, C 2.01, W 1.52, A 1.7, E 3.04, R 2.29, T 1.83, M 2.07, Y 2.11, F 2.28, D 2.73, L 1.64
Y22: H 2.77, A 2.57, D 3.12, S 2.81, L 2.22, M 2.9, C 2.98, I 2.39, G 2.64, K 2.82, W 1.63, N 2.72, T 2.95, F 2.31, R 2.35, P 2.65, V 2.38, Q 2.77, E 3.55
N16: V 2.37, A 2.42, L 2.05, T 2.77, E 2.48, M 1.54, Q 3.01, R 2.29, Y 2.1, D 2.62, H 2.48, K 2.34, P 2.81, G 3.01, C 2.8, W 2.08, S 2.35, I 2.02, F 1.58
I14: H 4.23, W 2.1, C 2.5, D 3.48, T 3.06, Q 2.14, A 2.56, K 2.49, P 2.64, V 1.79, E 2.85, L 2.41, S 3.36, M 3, G 2.3, F 2.87, Y 2.66, R 2.67, N 2.38
P23: Y 1.74, H 2.04, V 4.25, W 1.75, E 3.38, T 2.13, G 2.7, L 2.57, A 2.38, K 2.13, M 1.78, N 2.32, S 2.56, C 2.8, R 2.49, I 2.63, D 3.19, F 1.76, Q 2.26
N24: T 2.88, G 1.77, E 2.05, M 2.06, Y 2.39, D 2.6, I 1.86, L 2.27, C 2.34, V 1.65, F 1.85, A 2.11, P 2.37, K 2.24, Q 2.52, S 2.18, H 2.36, W 1.93
F19: M 2.39, S 2.56, K 3.55, P 3.14, D 4.58, Q 3.58, T 3.58, R 2.91, N 2.69, E 3.62, C 3.52, L 2.28, G 3.29, Y 3.06, W 2.34, H 2.89, A 3.58, V 3.27, I 2.82
R21: A 2.86, H 2.99, E 3.15, Q 2.75, G 2.83, P 3.02, Y 3.13, N 2.71, C 2.5, K 2.77, V 2.59, L 2.45, M 2.71, I 2.93, D 4.02, S 2.58
